In patent US20180022819A1, “COMPOSITIONS AND METHODS FOR COMBINATION THERAPY WITH PROSTATE-SPECIFIC MEMBRANE ANTIGEN BINDING PROTEINS” (APTEVO RESEARCH AND DEVELOPMENT LLC, priority 2015, published 2018):

B1: FITC-107-1A4: FITC-labeled anti-PSMA monoclonal antibody 107-1A4 (Acris) (antibody, V domains shown)
VH: EIQLQQSGPELVKPGASVKMSCKASGYTFTDYYMHWVKQNNGESLEWIGYFNPYNDYTRYNQNFNGKATLTVDKSSSTAYMQLNSLTSEDSAFYYCARSDGYYDAMDYWGQGTSVTVSS
VL: DVQITQSPSYLAASPGETITINCRASKSISKYLAWYQEKPGKANKLLIHSGSTLQSGIPSRFSGSGSGTDFTLTISSLEPEDFAMYYCQQHIEYPWTFGGGTKLEIKRA
B2: TSC249: anti-PSMA bispecific molecule targeting PSMA and CD3; protein sequence of SEQ ID NO: 78 (protein)
chain: DIQMTQSPSAMSASVGDRVTITCRASKSISKYLAWFQQKPGKVPKLRIHSGSTLQSGVPSRFSGSGSGTEFTLTISSLQPEDFATYYCQQHIEYPWTFGQGTKVEIKRGGGGSGGGGSGGGGSQVQLVQSGAEVKKPGASVKVSCKASGYTFTDYYMHWVRQAPGQGLEWMGYFNPYNDYTRYAQKFQGRVTMTRDTSISTAYMELSSLRSDDTAVYYCARSDGYYDAMDYWGQGTTVTVSSSEPKSSDKTHTCPPCPAPEAAGAPSVFLFPPKPKDTLMISRTPEVTCVVVDVSHEDPEVKFNWYVDGVEVHNAKTKPREEQYNSTYRVVSVLTVLHQDWLNGKAYACAVSNKALPAPIEKTISKAKGQPREPQVYTLPPSRDELTKNQVSLTCLVKGFYPSDIAVEWESNGQPENNYKTTPPVLDSDGSFFLYSKLTVDKSRWQQGNVFSCSVMHEALHNHYTQKSLSLSPGQRHNNSSLNTGTQMAGHSPNSQVQLVESGGGVVQPGRSLRLSCKASGYTFTRSTMHWVRQAPGQGLEWIGYINPSSAYTNYNQKFKDRFTISADKSKSTAFLQMDSLRPEDTGVYFCARPQVHYDYNGFPYWGQGTPVTVSSGGGGSGGGGSGGGGSAQDIQMTQSPSSLSASVGDRVTMTCSASSSVSYMNWYQQKPGKAPKRWIYDSSKLASGVPARFSGSGSGTDYTLTISSLQPEDFATYYCQQWSRNPPTFGGGTKLQITSSS
modifications: Humanized TSC249 Scorpion (huVL-VH#2 107-1A4 scFv-Fc-DRA222 scFv)

Tests used:
PSMA = assay: Binding of FITC-labeled 107-1A4 to 22Rv1 cells by flow cytometry (Example 4); set-up: species or system human; details: 22Rv1 cells that were or were not incubated with enzalutamide
Source text: Mean fluorescence intensity (MFI) of bound molecules on live cells is shown on the y-axis. Concentration (nM) of the anti-PSMA monoclonal antibody 107-1A4 labeled with FITC is shown on the x-axis.
22Rv1 cells (PSMA+ at low level) were obtained from ATCC (Manassas, Va.) and cultured according to the ATCC protocol in RPMI-1640 media plus 10% FBS. […] All four cultures were harvested, stained for PSMA with FITC-labeled anti-PSMA monoclonal antibody 107-1A4 (Acris), and PSMA expression assayed by standard flow cytometry procedures. 22Rv1 cells were harvested with trypsin, and placed into FACS buffer (PBS+0.5% BSA [Equitech]+2 mM EDTA [Life Technologies]) at 1×10e6 per ml. FITC-107-1A4 was prepared at 36 nM in FACS buffer, and serially diluted 1:3, before adding 50 μl to 2×10e5 22Rv1 cells which had been pelleted in a 96 well plate. After 30 minute incubation on ice, cells were washed 3 times in FACS buffer, resuspended in FACS buffer, and data acquired on a BD LSRII flow cytometer. The sample files were analyzed using FlowJo software; the median fluorescence intensity (MFI) of the live population of 22Rv1 cells in each well was calculated after gating on live cells (forward vs side scatter). Median fluorescence intensities were fit to a 4-parameter logistic curve and graphed as concentration vs. MFI using GraphPad PRISM® software.

LNCaP cells [1] = assay: Growth inhibition of LNCaP-GFP cells with primary human T-cells, 4 days, with combination index analysis (Example 6); assay type: cell-based
Protocol: Additional procedures are described in Example 6. Percentage of live cells relative to an untreated control is shown on the y-axis.
Combination indices can indicate additive effects (CI=1), synergism (CI<1), or antagonism (CI>1).
Overall fluorescent signal from GFP enabled the quantitation of living LNCaP target cells in isolation from T-cells. […] TSC249 was added to have final concentrations of 125, 62.5, 31.25, 15.6, 7.8, 3.9, or 1.95 pM, or none. T-cells from several donors were used in replicate experiments, added at a ratio of 45,000 T-cells to 15,000 LNCaP cells per well.
After 4 days culture at 37° C. in 5% CO2, media was aspirated from wells and […] of 0.4% NP-40 was added to each well. Fluorescent signal from GFP in LNCaP cells adherent in wells was detected by a Spectramax plate reader, reading from the bottom of the wells. […]
The combination index theorem developed by Chou and Talalay was used to determine the interaction between the two compounds in their anti-cancer activity (see Chou, Cancer Res. 2010 Jan. 15; 70(2):440-6; Chou, Pharmacol Rev. 2006 September; 58(3):621-81). For each plate, relative fluorescence units (RFU) of all wells were normalized to the RFU of the well containing cells only, i.e., the proportion of living LNCaP cells in each well was expressed in relation to untreated LNCaP cells. […] Mean values were calculated from three replicates. […]

LNCaP cells [2] = assay: Effect of enzalutamide on redirected T-cell cytotoxicity in LNCaP cells expressing GFP (Example 1); assay type: cell-based, human; set-up: reduction of live target cells: dose or concentration left out as unconfirmed; details: TSC249 titration with T-cells and […] nM enzalutamide, compared to TSC249 and T-cells alone
Protocol: A titration of the anti-PSMA bispecific molecule TSC249 (protein sequence of SEQ ID NO: 78 in Table 3) was added to all sets of LNCaP cells in the amounts shown on the x-axis. T-cells and DMSO were added to the first set of LNCaP cells (leftmost set of bars). […] No T-cells and DMSO were added to the third set of LNCaP cells (set of bars second from the right). […] LNCaP cell growth (number of live cells) was measured by overall fluorescence and expressed as a fraction of live cells relative to the cells untreated with TSC249 on the y-axis.
LNCaP cells expressing GFP were cultured with donor T-cells at a 3:1 ratio of T-cells to LNCaP target cells for 4 days. […] DMSO alone was added to other samples. A titration of the anti-PSMA bispecific molecule TSC249 (protein sequence of SEQ ID NO: 78 in Table 3) was added to the cell cultures. LNCaP cell growth (number of live cells) was monitored by overall fluorescence.

22Rv1 cells = assay: Chromium-51 release assay of redirected T-cell cytotoxicity against 22Rv1 cells (Example 5); assay type: cell-based, human; details: enzalutamide-treated 22Rv1 cells relative to untreated 22Rv1 cells
Protocol: FIG. 3 (top panel) is a graph showing the results of a chromium-51 release assay measuring the effectiveness of the anti-PSMA bispecific molecule TSC249 at inducing redirected T-cell cytotoxicity in 4 hours against enzalutamide-treated and untreated prostate cancer 22Rv1 cells. Percent specific lysis relative to a total lysis control is shown on the y-axis. Concentration (pM) of the anti-PSMA bispecific molecule TSC249 is shown on the x-axis.
To compare the sensitivity of enzalutamide-treated and untreated 22Rv1 prostate cancer cells to target-dependent T-cell cytotoxicity, a bispecific binding molecule targeting PSMA and CD3 was tested in a chromium (^51Cr) release assay using donor T-cells as effector cells. [See, e.g., US 2014/0161800 A1, which describes multispecific binding molecules that bind to prostate-specific membrane antigen (PSMA) and CD3.]
Cytotoxicity was assessed by a ^51Cr release assay. […]
Plates were incubated for 4 hours, spun at 225×g for 3 minutes, and 25 μL of supernatant was transferred from each well to the corresponding well of a 96-well LUMAPLATE® sample plate (Perkin Elmer). Sample plates were allowed to air dry in a chemical safety hood for 18 hours, and then radioactivity was read on a Topcount scintillation counter using a standard protocol. […]

Molecule	ECso values determined from binding curves (PSMA)	interaction by combination index (Chou and Talalay) (LNCaP cells [1]; 1.95-31.25 pM TSC249 at all enzalutamide concentrations used (39, 156, 625 nM))	live cell signal when combined with the other drug (LNCaP cells [1]; enzalutamide plus TSC249 over a wide range of concentrations, T-cells, 4 days)	reduction of live target cells (LNCaP cells [2])	specific lysis from T-cell directed cytotoxicity (22Rv1 cells)
B1	no significant differences				
B2		Synergy	further decrease in live cell signal	higher dose-dependent reduction of live target cells	increase in specific lysis
